Our source for the cAMP concentration (adenylate cyclase stimulation) in UMR106 cells, scintillation proximity assay values is patent publication US5747453.

The assay deals with PTH receptor (rat) (UniProt P25961).
Sequence of PTH receptor (rat) (P25961 27-591): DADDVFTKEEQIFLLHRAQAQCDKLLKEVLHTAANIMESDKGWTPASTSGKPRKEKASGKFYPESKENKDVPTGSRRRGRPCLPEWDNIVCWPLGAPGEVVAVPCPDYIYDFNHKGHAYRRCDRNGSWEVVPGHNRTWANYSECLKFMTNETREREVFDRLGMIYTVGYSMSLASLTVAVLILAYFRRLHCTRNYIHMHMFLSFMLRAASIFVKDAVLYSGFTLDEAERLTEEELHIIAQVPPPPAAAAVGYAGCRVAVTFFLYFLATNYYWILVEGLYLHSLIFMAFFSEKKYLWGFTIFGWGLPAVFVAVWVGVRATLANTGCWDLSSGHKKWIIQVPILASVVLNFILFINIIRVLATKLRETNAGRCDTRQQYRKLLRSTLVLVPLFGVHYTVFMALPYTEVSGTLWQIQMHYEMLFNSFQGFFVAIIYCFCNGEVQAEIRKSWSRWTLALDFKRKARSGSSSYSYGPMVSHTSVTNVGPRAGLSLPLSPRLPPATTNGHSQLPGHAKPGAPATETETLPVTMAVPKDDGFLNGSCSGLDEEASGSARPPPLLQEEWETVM

Sequence of PTH analog 1 (1-35) (ligand) (peptide): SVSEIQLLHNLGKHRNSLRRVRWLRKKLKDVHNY

For the substance “Synthetic PTH having the wild-type sequence (ligand)”, the cAMP concentration (adenylate cyclase stimulation) in UMR106 cells, scintillation proximity assay stood at 4.4 nM.
As for PTH analog 1 (1-35) (ligand), the cAMP concentration (adenylate cyclase stimulation) in UMR106 cells, scintillation proximity assay is 0.9 nM.
